Source: publication doi:10.1101/2021.02.28.433298
Where two headings read alike, the source gives them in different places.

Key:
[1] = target: T1, CytR DBD (Escherichia coli, UniProt P0ACN7 1-67); experiment: fluorescence anisotropy
T1 sequence: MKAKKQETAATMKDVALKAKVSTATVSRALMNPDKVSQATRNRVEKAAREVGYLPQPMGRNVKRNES

[2] = target: T1, CytR DBD; experiment: NMR
[3] = target: T1, CytR DBD; experiment: fluorescence anisotropy; remark: listed apart in the source
[4] = target: T1, CytR DBD; experiment: fluorescence anisotropy; remark: listed apart in the source

B1: udp left half-site (dsDNA)
DNA 1: ATTTATGCAACGCA
DNA 2: TGCGTTGCATAAAT
Question: How did the Kd [1] turn out when B1 was run?
Answer: 9.6 ± 1.8 µM

B2: udp full-site operator (CytO) (dsDNA)
DNA 1: GTAAATTTATGCAACGCATTTGCGTCATGGTG
DNA 2: CACCATGACGCAAATGCGTTGCATAAATTTAC
Question: Does B2 bind [2]?
Answer: binds

B3: nonspecific 30 bp (dsDNA)
DNA 1: GTACAGAACATGTCTAAGCATGCTGGGGAC
DNA 2: GTCCCCAGCATGCTTAGACATGTTCTGTAC
Question: With B3 as the binder, how does the Kd [3] read?
Answer: 1.81 µM

B4: nonspecific 14 bp (dsDNA)
DNA 1: AGCATGCTGGGGAC
DNA 2: GTCCCCAGCATGCT
Question: How did the Kd [4] turn out when B4 was run?
Answer: 5.7 µM
